Laboratory results: publication PMC4704560, “Biophysical Characterization of Nucleophosmin Interactions with Human Immunodeficiency Virus Rev and Herpes Simplex Virus US11” (PLoS ONE, 2015)

B1: NPM1 oligomerization domain (NPM1^OD, aa 1-122), tag cleaved (domain or fragment, UniProt P06748 1-122, looked up)
chain: MEDSMDMDMSPLRPQNYLFGCELKADKDYHFKVDNDENEHQLSLRTVSLGAGAKDELHIVEAEAMNYEGSPIKVTLATLKMSVQPTVSLGGFEITPPVVLRLKCGSGPVHISGQHLVAVEED
notes: source: E. coli (BL21(DE3), pLysS BL21(DE3), CodonPlusRIL or BL21(Rosetta)), purified
B2: HIV-1 Rev full-length (Rev^FL, aa 1-116), tag cleaved (natural protein)
chain: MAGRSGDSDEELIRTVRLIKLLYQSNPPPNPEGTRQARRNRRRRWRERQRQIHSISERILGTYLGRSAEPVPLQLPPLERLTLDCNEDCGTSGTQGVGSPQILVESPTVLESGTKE
B3: NPM1 histone and RNA-binding domains (NPM1^HRBD, aa 120-294), tag cleaved (domain or fragment, UniProt P06748 120-294, looked up)
chain: EEDAESEDEEEEDVKLLSISGKRSAPGGGSKVPQKKVKLAADEDDDDDDEEDDDEDDDDDDFDDEEAEEKAPVKKSIRDTPAKNAQKSNQNGKDSKPSSTPRSKGQESFKKQEKTPKTPKGPSSVEDIKAKMQASIEKGGSLPKVEAKFINYVKNCFRMTDQEAIQDLWQWRKSL
notes: also called NPM^HRBD; source: E. coli (BL21(DE3), pLysS BL21(DE3), CodonPlusRIL or BL21(Rosetta)), purified
B4: NPM1 histone binding domain (NPM1^HBD, aa 120-241), tag cleaved (domain or fragment, UniProt P06748 120-241, looked up)
chain: EEDAESEDEEEEDVKLLSISGKRSAPGGGSKVPQKKVKLAADEDDDDDDEEDDDEDDDDDDFDDEEAEEKAPVKKSIRDTPAKNAQKSNQNGKDSKPSSTPRSKGQESFKKQEKTPKTPKGP
notes: as for B1

Tests used:
[1] = biological target: FITC-labelled CIGB-300; experiment: fluorescence polarisation; increasing amounts of NPM1 variants, GST-Rev, GST-US11 or GST titrated into 0.1 uM FITC-labelled CIGB-300; 25 C; 30 mM Tris/HCl pH 7.5, 150 mM NaCl, 5 mM MgCl2, 1 mM TCEP; quadratic ligand binding equation
[2] = biological target: HSV-1 US11 full-length (US11^FL, aa 1-152), tag-free (HSV-1) (UniProt P04487); experiment: SEC-MALS; aSEC (Superdex 200 10/300) with MALS/RI of NPM1^OD, US11^FL and their mixture, RNase A treated; 30 mM Tris-HCl pH 7.5, 150 mM NaCl, 5 mM MgCl2, 3 mM DTT
[3] = biological target: HSV-1 US11 full-length (US11^FL, aa 1-152), tag-free (HSV-1) (UniProt P04487); experiment: ITC; 1.2 mM NPM1^FL titrated into 60 uM US11^FL; both treated with RNase A; 25 C; apparent Kd; endothermic
[4] = biological target: the molecule itself; experiment: SEC-MALS; aSEC (Superdex 200 10/300) with MALS/RI of NPM1^OD, US11^FL and their mixture, RNase A treated; 30 mM Tris-HCl pH 7.5, 150 mM NaCl, 5 mM MgCl2, 3 mM DTT
[5] = biological target: B2; experiment: ITC; NPM1 variants titrated into Rev^FL (tags cleaved); 25 C; 30 mM Tris-HCl pH 7.5, 150 mM NaCl, 5 mM MgCl2, 1 mM TCEP; VP-ITC; details: both partners purified
[6] = biological target: B1; experiment: as above; details: both partners purified
[7] = biological target: T1, NPM1 full-length (NPM1^FL, aa 1-294), tag cleaved (UniProt P06748 1-294); experiment: as above; details: both partners purified
T1 construct: source: E. coli (BL21(DE3), pLysS BL21(DE3), CodonPlusRIL or BL21(Rosetta)), purified

[8] = biological target: B4; experiment: as above; details: both partners purified
[9] = biological target: B3; experiment: as above; details: both partners purified

Molecule | Kd [1] [µM] | dH [5] [kcal/mol] | stoichiometry N [5] [sites] | also measured
NPM1 oligomerization domain (NPM1^OD, aa 1-122), tag cleaved (from UniProt P06748 1-122) (domain or fragment) | 6.6 | – | – | stoichiometry N (US11^FL monomer per NPM1^OD pentamer) [2]: 1
NPM1 full-length (NPM1^FL, aa 1-294), tag cleaved (from UniProt P06748 1-294) (natural protein) | 1.4 | – | – | Kd [3]: 4 µM
B1 | – | -3.79 ± 0.11 | 0.94 | stoichiometry N [4]: 5
B2 | – | – | – | Kd [6]: 0.013 µM; Kd [7]: 0.41 µM; Kd [8]: 5.8 µM; Kd [9]: 18 µM
B3 | – | -3.23 ± 0.31 | 0.76 | –
B4 | – | -1.71 ± 0.2 | 0.85 | –
